Patent US20210246195A1 (CZ BIOHUB SF, published 2021)
Read-outs that look alike come from different tables or passages of the source.

Assays:
[1] = molecular target: T1, BSA (UniProt P02769 25-607); experiment: indirect ELISA, OD heat map
T1 construct: also called bovine serum albumin; immobilized BSA

[2] = molecular target: T2, Ara h 3 (purified natural peanut allergen) (Arachis hypogaea); experiment: BLI, antibody on anti-human IgG Fc sensors, Ara h 3 as analyte, top 16 nM
T2 construct: mature; bought natural protein; also called natural Ara h 3; NA-AH3-1

[3] = molecular target: T2, Ara h 3 (purified natural peanut …); experiment: BLI, antibody on anti-human IgG Fc sensors, Ara h 3 as analyte, top 32 nM
[4] = molecular target: T3, Ara h 1 (purified natural peanut allergen) (Arachis hypogaea, UniProt P43238 26-626); experiment: indirect ELISA, OD heat map
T3 construct: mature; bought natural protein; also called natural Ara h 1; NA-AH1-1
T3 sequence (looked up): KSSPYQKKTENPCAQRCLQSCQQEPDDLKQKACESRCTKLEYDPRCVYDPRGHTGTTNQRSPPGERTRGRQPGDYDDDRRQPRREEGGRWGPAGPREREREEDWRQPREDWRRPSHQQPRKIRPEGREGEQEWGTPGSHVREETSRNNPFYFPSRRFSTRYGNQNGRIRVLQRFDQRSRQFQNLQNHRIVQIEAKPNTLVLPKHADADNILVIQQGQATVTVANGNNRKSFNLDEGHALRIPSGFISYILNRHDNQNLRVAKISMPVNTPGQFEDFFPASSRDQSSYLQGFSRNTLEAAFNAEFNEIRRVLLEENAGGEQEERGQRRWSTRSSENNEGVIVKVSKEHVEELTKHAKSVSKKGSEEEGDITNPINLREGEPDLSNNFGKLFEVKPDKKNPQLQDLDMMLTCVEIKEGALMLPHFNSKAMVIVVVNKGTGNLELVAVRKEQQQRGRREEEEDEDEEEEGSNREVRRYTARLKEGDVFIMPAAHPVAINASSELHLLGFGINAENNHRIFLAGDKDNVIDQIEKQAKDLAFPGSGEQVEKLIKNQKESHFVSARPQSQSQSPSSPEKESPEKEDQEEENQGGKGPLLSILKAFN

[5] = molecular target: T2, Ara h 3 (purified natural peanut …); experiment: BLI, antibody on anti-human IgG Fc sensors, Ara h 3 as analyte, top 128 nM
[6] = molecular target: T2, Ara h 3 (purified natural peanut …); experiment: BLI, scatter plot of KDs; the diamond lies on the axis line labelled >10^-7
[7] = molecular target: T2, Ara h 3 (purified natural peanut …); experiment: BLI, antibody on anti-human IgG Fc sensors, Ara h 3 as analyte, top 64 nM
[8] = molecular target: T3, Ara h 1 (purified natural peanut …); experiment: indirect ELISA
[9] = molecular target: T2, Ara h 3 (purified natural peanut …); experiment: BLI, antibody on anti-human IgG Fc sensors, Ara h 3 as analyte, top 512 nM
[10] = molecular target: T4, purified recombinant allergen Aspergillus fumigatus 1 (rAsp f 1) (Aspergillus fumigatus, UniProt P67875 28-176); experiment: indirect ELISA (FIG. 19)
T4 sequence: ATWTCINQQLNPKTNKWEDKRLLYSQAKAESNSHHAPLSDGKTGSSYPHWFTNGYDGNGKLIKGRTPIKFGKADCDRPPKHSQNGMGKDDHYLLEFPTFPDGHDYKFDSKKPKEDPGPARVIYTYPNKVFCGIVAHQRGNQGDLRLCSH

[11] = molecular target: T1, BSA; experiment: indirect ELISA, OD heat map; remark: listed apart in the source

T1 sequence (P02769 25-607 limits assumed): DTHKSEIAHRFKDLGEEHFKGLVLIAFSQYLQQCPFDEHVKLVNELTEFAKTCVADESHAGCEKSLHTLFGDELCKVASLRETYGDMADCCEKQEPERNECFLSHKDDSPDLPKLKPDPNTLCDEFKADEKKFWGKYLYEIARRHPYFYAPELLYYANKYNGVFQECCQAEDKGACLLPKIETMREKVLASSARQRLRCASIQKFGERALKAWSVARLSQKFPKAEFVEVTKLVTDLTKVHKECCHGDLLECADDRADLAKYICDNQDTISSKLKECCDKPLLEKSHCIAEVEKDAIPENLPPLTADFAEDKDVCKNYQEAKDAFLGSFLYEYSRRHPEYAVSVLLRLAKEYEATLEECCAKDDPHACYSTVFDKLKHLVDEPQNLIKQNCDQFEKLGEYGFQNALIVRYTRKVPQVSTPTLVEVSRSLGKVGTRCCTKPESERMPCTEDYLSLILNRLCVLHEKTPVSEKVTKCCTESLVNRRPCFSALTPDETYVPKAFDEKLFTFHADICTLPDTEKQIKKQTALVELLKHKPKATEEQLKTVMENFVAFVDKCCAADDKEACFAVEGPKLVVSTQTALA

B1: PA13P1H08 (antibody, human IgG1, V domains shown)
VH: QVQLVNSGGGVVQPGRSLRLSCVASGFTFSTFGIHWVRQAPGKGLEWVAVISNDGEKSESADSVKGRFTPSRDNSKNTVYLQMNNLRVEDTAVYYCAKVLDYSRYSYYYGMDVWGQGTTVIVSS
VL: EIVLTQSPGTLSLSPGGRGTLSCRTSQTINNAHLAWYQHKPGQAPRLLIYGSSERATGVPDRFSGSGSGSDFTLTISSLEAEDFAVYYCQHYGRSPPYTFGPGTKLDIK
notes: human IgG1, kappa; also called Clone PA13P1H08; N-N
- binding result [1]: no binding (tested: 2 ng/µL)
- Kd [2]: 0.3 nM

B2: PA13P1H08 variant rFWRs-N (antibody, human IgG1, V domains shown)
VH: QVQLVESGGGVVQPGRSLRLSCAASGFTFSTFGMHWVRQAPGKGLEWVAVISNDGEKSYYADSVKGRFTISRDNSKNTLYLQMNSLRAEDTAVYYCAKVLDYSRYSYYYGMDVWGQGTTVTVSS
VL: EIVLTQSPGTLSLSPGGRGTLSCRTSQTINNAHLAWYQHKPGQAPRLLIYGSSERATGVPDRFSGSGSGSDFTLTISSLEAEDFAVYYCQHYGRSPPYTFGPGTKLDIK
notes: human IgG1, kappa; also called heavy chain framework regions reverted
- binding result [1]: no binding (tested: 2 ng/µL)
- Kd [3]: 3.2 nM

B3: PA13P1H08 variant R-R (antibody, V domains shown)
VH: QVQLVESGGGVVQPGRSLRLSCAASGFTFSSYGMHWVRQAPGKGLEWVAVISYDGSNKYYADSVKGRFTISRDNSKNTLYLQMNSLRAEDTAVYYCAKVLDYSNYYYYYGMDVWGQGTTVTVSS
VL: not shown
notes: human IgG1, kappa; also called both chains reverted to the inferred naive rearrangement
- binding result [1]: no binding (tested: 2 ng/µL)
- binding result [4]: no binding (tested: 2 ng/µL)
- Kd [5]: > 100 nM
- Kd [6]: > 100 nM

B4: PA13P1H08 variant R-N (antibody, human IgG1, V domains shown)
VH: QVQLVESGGGVVQPGRSLRLSCAASGFTFSSYGMHWVRQAPGKGLEWVAVISYDGSNKYYADSVKGRFTISRDNSKNTLYLQMNSLRAEDTAVYYCAKVLDYSNYYYYYGMDVWGQGTTVTVSS
VL: EIVLTQSPGTLSLSPGGRGTLSCRTSQTINNAHLAWYQHKPGQAPRLLIYGSSERATGVPDRFSGSGSGSDFTLTISSLEAEDFAVYYCQHYGRSPPYTFGPGTKLDIK
notes: human IgG1, kappa; also called reverted heavy chain, native light chain
- binding result [1]: no binding (tested: 2 ng/µL)
- Kd [3]: 0.89 nM

B5: PA13P1H08 variant N-R (antibody, V domains shown)
VH: QVQLVNSGGGVVQPGRSLRLSCVASGFTFSTFGIHWVRQAPGKGLEWVAVISNDGEKSESADSVKGRFTPSRDNSKNTVYLQMNNLRVEDTAVYYCAKVLDYSRYSYYYGMDVWGQGTTVIVSS
VL: not shown
notes: human IgG1, kappa; also called native heavy chain, reverted light chain
- binding result [1]: no binding (tested: 2 ng/µL)
- binding result [4]: no binding (tested: 2 ng/µL)
- Kd [7]: 7.4 nM

B6: PA15P1D05 (antibody, human IgG1, V domains shown)
VH: QVHLVESGGGVVQPGRSLGLSCVASGFTFNYYAIHWVRQAPGKGLEWVAVVSFDGNIIYYADSVKGRFNISRDNSKNTVNLQMNSLRPDDTAVYYCVRDGEYCSGGNCYWGDFDHWGQGSLVTVSP
VL: EIVLTQSPATLSLSPGERATLSCRASQSISSEYLTWFQQKPGQAPRLLIYGAFNRATGIPDRFSGSGSGTDFTLTISSLEPEDFAVYYCQQYANWWTFGQGTKVEIK
notes: human IgG1; also called CF3 IgE PB antibody
- binding result [8]: no binding
- Kd [9]: 2 nM

B7: PA15P1D12 (antibody, human IgG1, V domains shown)
VH: QVHLVESGGGVVQPGRSLGLSCAASGFTFNYYAIHWVRQAPGKGLEWVAVVSFDGNIIYYADSVKGRFNISRDNSKNTVNLQMNSLRADDTAVYYCVRDGEYCSGGNCYWGDFDYWGQGTLVTVSP
VL: EIVLTQSPGTLSLSPGERATLSCRASQSISSEYLTWFQQKPGQAPRLLIYGAFNRATGIPDRFSGSGSGTDFTLTISSLEPEDFAVYYCQQYANWWTFGQGTKVEIK
notes: human IgG1; also called CF3 IgG4 PB antibody
- binding result [8]: no binding
- Kd [9]: 1.1 nM

B8: PA13P1H08 variant with native heavy chain and light chain swapped with another kappa light chain (antibody, human IgG1, V domains shown)
VH: QVQLVNSGGGVVQPGRSLRLSCVASGFTFSTFGIHWVRQAPGKGLEWVAVISNDGEKSESADSVKGRFTPSRDNSKNTVYLQMNNLRVEDTAVYYCAKVLDYSRYSYYYGMDVWGQGTTVIVSS
VL: EIVLTQSPATLSLSPGERATLSCRASQSVSSYLAWYQQKPGQAPRLLIYDASNRATGIPARFSGSGSGTDFTLTISSLEPEDFAVYYCQQRSNWPPGFTFGPGTKVDIK
notes: human IgG1, kappa
- binding result [1]: no binding (tested: 2 ng/µL)
- binding result [4]: no binding (tested: 2 ng/µL)

B9: 1003320107_F3 (antibody, V domains shown)
VH: QVQLQESGPGLVKPSETLSLSCNVSGGSIRGHYWSWIRQSPGKRLEWLGYIYQSGYTKYNPSLKSRVSISLDTSKNKFSLNLKSVTTADTAVYYCAGRVAERGGDQFDFWGQGTLVTVSS
VL: SYELTQSPSLSVSPGQTASITCSGENLGEKHASWYQQKSGQSPVLVIYQDTKRPAGIPERFSGSNSGSTATLTISGTQPMDEADYFCQAWDANTANVIFGGGTMLTVL
notes: also called Clone 1003320107_F3
- binding result [10]: binds
- binding result [11]: no binding (tested: 2 ng/µL)

B10: 1003320107_C5 (antibody, V domains shown)
VH: QVQLQESGLGLVKPSGTLSLTCAVSGGPMNSSYWWSWVRQSPGGGLEWIGQISHYTNTKYNPSFKNRVSISIDKSKNEFSLRLTYVTGADTGVYYCVGERDWKDPNWFDPWGQGRLVTVSS
VL: QSVLTQPPSVSGAPGQRVTISCTGSNSNIGAGQDVHWYQHFPGTAPKLVIYGNSNRPSGVPDRFSGSKSGTSASLAISGLQADDEADYYCQSYDKSLSSSLFGGGTKLTVL
notes: also called Clone 1003320107_C5
- binding result [10]: binds
- binding result [11]: no binding (tested: 2 ng/µL)
